Assay results reported in US20110281938, “APTAMERS TO TISSUE FACTOR PATHWAY INHIBITOR AND THEIR USE AS BLEEDING DISORDER THERAPEUTICS” (Baxter Healthcare S.A., published 2011).

How the values were obtained:
[1] = molecular target: T1, TFPI (tissue factor pathway inhibitor, full-length) (Homo sapiens, UniProt P10646 SEQ:1-276); assay: competition; fails binding-competition criterion; CAT yes; conditions: tags: American Diagnostica 4500PC/4900PC, E. coli expressed
Experimental: The substituted ARC17480 molecules were assayed for binding and function. The assays used for this evaluation were the calibrated automated thrombogram (CAT) assay, a dot-blot binding-competition assay and a FXa activity assay. The results of these assays are summarized in Table 40 and depicted in FIG. 147. A mutation was considered tolerated for activity if it met the criteria of at least two of the three assays that were carried out. Mutations that are tolerated (“yes”) and not tolerated (“no”) are identified in Table 40. The experimental details and the criteria used for each assay are described in the following paragraphs. The molecules described in this example were first tested in the CAT assay and the dot-blot binding-competition assay. In most cases, molecules were only tested in the FXa assay if there was a discrepancy between the results in the CAT assay and the dot-blot binding-competition assay.
Each molecule was evaluated for binding to tissue factor pathway inhibitor (TFPI) in a binding-competition assay. […] The IC₅₀ of each aptamer was compared to the IC₅₀ of ARC17480 that was evaluated in the same experiment. A mutation was considered tolerated in the binding-competition assay if the IC₅₀ of that molecule was not more than 5-fold greater than that of ARC17480 evaluated in the same experiment. […]

[2] = molecular target: T1, TFPI (tissue factor pathway inhibitor, …); assay: competition; negative control, no competition with ARC17480 in dot blot; conditions: tags: American Diagnostica 4500PC/4900PC, E. coli expressed
[3] = molecular target: Truncated TFPI-K1K2 (UniProt P10646 SEQ:1-161); assay: filter; no detectable binding up to 500 nM; conditions: tags: American Diagnostica, E. coli expressed; label: radiolabel
Experimental: Trace amounts of radiolabeled ARC17480 were incubated with different concentrations of truncated TFPI-K1K2 (500 nM-0.008 nM) and the K3-C-terminal domain protein (500 nM-0.7 nM) (Table 1). […] Trace amounts of radiolabeled ARC17480 were incubated with different concentrations of the C-terminal peptide (10 μM-0.17 nM) (Table 1). Neutravidin (˜100 nM monomer) was then added to the binding solution to assist in the capture of aptamer:peptide complexes on a nitrocellulose filter. The amount of radiolabeled aptamer captured on a nitrocellulose filter was quantitated and compared to the total amount of radiolabeled aptamer to generate a binding curve, which is shown in FIG. 17B.

[4] = molecular target: Antithrombin (ATIII) (UniProt P01008 P01008:33-464); assay: filter; no significant affinity up to 0.5-1 uM; conditions: label: radiolabel
[5] = molecular target: T2, Heparin cofactor II (UniProt P05546 P05546:20-499); assay: filter; no significant affinity up to 0.5-1 uM; conditions: label: radiolabel
T2 sequence: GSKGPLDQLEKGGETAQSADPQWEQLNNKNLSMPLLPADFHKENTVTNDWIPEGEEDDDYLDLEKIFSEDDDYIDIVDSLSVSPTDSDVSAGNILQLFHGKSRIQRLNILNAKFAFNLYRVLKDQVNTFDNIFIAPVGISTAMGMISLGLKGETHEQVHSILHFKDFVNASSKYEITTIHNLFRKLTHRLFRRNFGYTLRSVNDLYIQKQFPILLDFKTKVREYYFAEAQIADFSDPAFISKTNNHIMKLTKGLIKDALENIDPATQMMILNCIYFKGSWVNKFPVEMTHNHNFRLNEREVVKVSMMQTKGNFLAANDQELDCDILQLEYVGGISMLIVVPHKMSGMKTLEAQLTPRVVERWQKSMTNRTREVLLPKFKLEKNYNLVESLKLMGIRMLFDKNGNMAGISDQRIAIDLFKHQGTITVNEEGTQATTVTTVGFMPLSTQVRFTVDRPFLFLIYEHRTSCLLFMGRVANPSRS

[6] = molecular target: Factor Xa (UniProt P00742;P00742 P00742:41-179,P00742:235-488); assay: filter; no significant affinity up to 0.5-1 uM; conditions: label: radiolabel
[7] = molecular target: alpha-Thrombin (UniProt P00734;P00734 P00734:328-363,P00734:364-622); assay: filter; no significant affinity up to 0.5-1 uM
[8] = molecular target: T3, TFPI-2 (UniProt P48307 P48307:23-235); assay: filter; no significant affinity up to 0.5-1 uM; conditions: label: radiolabel
T3 sequence: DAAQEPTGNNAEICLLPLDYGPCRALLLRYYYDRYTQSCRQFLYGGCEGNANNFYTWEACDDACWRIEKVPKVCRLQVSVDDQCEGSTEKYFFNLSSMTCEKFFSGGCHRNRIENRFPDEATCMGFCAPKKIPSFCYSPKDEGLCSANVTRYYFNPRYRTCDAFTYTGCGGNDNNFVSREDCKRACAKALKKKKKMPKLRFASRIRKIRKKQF

[9] = molecular target: Factor VIIa (UniProt P08709;P08709 P08709:61-212,P08709:213-466); assay: filter; no significant affinity up to 0.5-1 uM; conditions: label: radiolabel
[10] = molecular target: Factor IXa (UniProt P00740;P00740 P00740:47-191,P00740:227-461); assay: filter; no significant affinity up to 0.5-1 uM; conditions: label: radiolabel
[11] = molecular target: Prothrombin (UniProt P00734 P00734:44-622); assay: filter; no significant affinity up to 0.5-1 uM; conditions: label: radiolabel
[12] = molecular target: Plasmin (UniProt P00747;P00747 P00747:97-580,P00747:581-810); assay: filter; no significant affinity up to 0.5-1 uM; conditions: label: radiolabel
[13] = molecular target: alpha-1 antitrypsin (serpin-A1) (UniProt P01009 P01009:25-418); assay: filter; no significant affinity up to 0.5-1 uM; conditions: label: radiolabel
[14] = molecular target: Factor Va (UniProt P12259;P12259 P12259:29-737,P12259:1574-2224); assay: filter; no significant affinity up to 0.5-1 uM; conditions: label: radiolabel
[15] = molecular target: Factor XIa (UniProt P03951;P03951 P03951:19-387,P03951:388-625); assay: filter; no significant affinity up to 0.5-1 uM; conditions: chain copies: 2; label: radiolabel
[16] = molecular target: Kallikrein (UniProt P03952;P03952 P03952:20-390,P03952:391-638); assay: filter; no significant affinity up to 0.5-1 uM; conditions: label: radiolabel
[17] = molecular target: T1, TFPI (tissue factor pathway inhibitor, …); assay: competition; competition with 20 nM ARC19499, plate assay; conditions: tags: American Diagnostica 4500PC/4900PC, E. coli expressed
Experimental: In order to assess the affinity of ARC19498 towards TFPI protein, an ARC19499:TFPI binding competition assay was set up. Recombinant human TFPI protein (0.5 mg/mL) was diluted in DPBS to a final concentration of 15 μg/mL, and 100 μL was added to a 96-well Maxisorb plate and incubated overnight at 4° C. The TFPI solution was then removed and the plate was subsequently washed 3 times with 200 μL wash buffer (DPBS+0.05% Tween 20) at room temperature. The plate was then blocked with 200 μL of 10 mg/mL BSA in DPBS for 30 minutes at room temperature. The BSA blocking solution was then removed and the plate was washed again 3 times with 200 μL wash buffer. ARC19498 was serially diluted and mixed at different concentrations with 20 nM ARC19499 in DPBS in 0.1% BSA. The ARC19498:ARC19499 mixtures were added to the plate and incubated for 3 hours at room temperature. After washing 3 times with 200 μL wash buffer, 100 μL of 0.5 μg/mL rabbit monoclonal anti-PEG antibody (Epitomics) was added to the plate and incubated for 60 minutes at room temperature. The anti-PEG antibody solution was then removed and the plate was washed as described above. […] The assay plate was then read at 450 nm using a Victor³V 1420 multilabel counter (Perkin Elmer). […] The IC₅₀ was calculated based on 4-parameter logistics using Graphpad Prism 4 software.

[18] = molecular target: T1, TFPI (tissue factor pathway inhibitor, …); assay: competition; fails binding-competition criterion; FXa yes; conditions: tags: American Diagnostica 4500PC/4900PC, E. coli expressed
Experimental: (§1) Each molecule was evaluated for binding to tissue factor pathway inhibitor (TFPI) in a binding-competition assay. For these experiments, 10 nM human TFPI (American Diagnostica, Stamford, Conn., catalog #4500PC) was incubated with trace amounts of radiolabeled ARC17480 and 5000 nM, 1666.67 nM, 555.56 nM, 185.19 nM, 61.73 nM, 20.58 nM, 6.86 nM, 2.29 nM, 0.76 nM or 0.25 nM of unlabeled competitor aptamer. ARC17480 was included as a competitor in every experiment as a control. For each molecule, the percentage of radiolabeled ARC17480 bound at each competitor aptamer concentration was used for analysis. The percentage of radiolabeled ARC17480 bound was plotted as a function of aptamer concentration and fit to the equation y=(max/(1+x/IC₅₀))+int, where y=the percentage of radiolabeled ARC17480 bound, x=the concentration of aptamer, max=the maximum radiolabeled ARC17480 bound, and int=the y-intercept, to generate an IC₅₀ value for binding-competition. The IC₅₀ of each aptamer was compared to the IC₅₀ of ARC17480 that was evaluated in the same experiment. A substitution was considered tolerated in the binding-competition assay if the IC₅₀ of that molecule was not more than 5-fold greater than that of ARC17480 evaluated in the same experiment. Tolerated substitutions are indicated in Table 38 as meeting the assay criteria (“yes”) or not meeting the assay criteria (“no”).

[19] = molecular target: T1, TFPI (tissue factor pathway inhibitor, …); assay: competition; fails binding-competition criterion; CAT and FXa yes; conditions: tags: American Diagnostica 4500PC/4900PC, E. coli expressed
Experimental: as §1

B1: ARC33169 (mixed)
RNA: GGAAUAUACUUGGCUCGUUAUGUGCGUAUAUA
modifications: 2'-OMe A/G/U, 2'-deoxy C, 3' idT
binding signal [1]: > 5 fold IC50 of ARC17480

B2: ARC32603 (mixed)
RNA: GGAAUAUACUUGGCUGCUUAGGUGCGUAUAUA
modifications: 2'-OMe A/G/U, 2'-deoxy C, 3' idT
binding result [2]: no binding

B3: ARC17480 (mixed)
RNA: GGAAUAUACUUGGCUCGUUAGGUGCGUAUAUA
modifications: 2'-OMe A/G/U, 2'-deoxy C, 3' idT
binding result [3]: no binding | binding result [4]: no binding | binding result [5]: no binding | binding result [6]: no binding | binding result [7]: no binding | binding result [8]: no binding | binding result [9]: no binding | binding result [10]: no binding | binding result [11]: no binding | binding result [12]: no binding | binding result [13]: no binding | binding result [14]: no binding | binding result [15]: no binding | binding result [16]: no binding

B4: ARC19498 (mixed)
RNA: GGAAUAUACUUGGCUCGUUAGGUGCGUAUAUA
modifications: 5'-hexylamine, 2'-OMe A/G/U, 2'-deoxy C, 3' idT
IC50 [17]: 20 nM

B5: ARC33132 (mixed)
RNA: GGAAUAUACUUGGCUCGUAGGUGCGUAUAUA
modifications: 2'-OMe A/G/U, 2'-deoxy C, 3' idT
binding signal [18]: > 5 fold IC50 of ARC17480

B6: ARC33889 (mixed)
RNA: UAUACUUGGCUCGUUAGGUGCGUAU
modifications: 2'-OMe A/G/U, 2'-deoxy C, 3' idT
binding signal [19]: > 5 fold IC50 of ARC17480
